According to patent US20130116129, “METHOD FOR DETECTING TARGET MOLECULES” (NATIONAL INSTITUTE OF ADVANCED INDUSTRIAL SCIENCE AND …, published 2013):
Where a chain is given by its changes, count along the chain named.

B1: streptavidin aptamer (ssDNA)
DNA: TCTGTGAGACGACGCACCGGTCGCAGGTTTTGTCTCACAG
B2: control aptamer (ssDNA)
DNA: B1 DNA with G20A, T21C

Key:
streptavidin [1] = biological target: T1, streptavidin (UniProt P22629 P22629:25-183); assay: footprint; S1 nuclease protection; 50 mM NaCl, 20 mM MgCl2, Tris pH 7.5; ratio to control varies with streptavidin concentration; conditions: tags: Roche (free); Dynabeads streptavidin (Invitrogen) for bead selections; chain copies: 4
Procedure: (§1) Subsequently, 1 μl of S1 nuclease (22.5 units/μl) (Takara, Japan) was added to each tube followed by 20-minutes reaction at 37° C., and then the reaction was stopped by heating at 98° C. for 3 minutes.
(§2) PCR was performed, using a thermal circular (Biometra), after keeping the temperature at 96° C. for 1 minute, for 1 cycle of 95° C. for 15 seconds, 46° C. for 20 seconds, and 72° C. for 60 seconds, then 40 cycles each consisting of 95° C. for 15 seconds and 72° C. for 60 seconds. As a PCR reagent, KOD-Neo-plus (Toyobo Co., Ltd., Japan) was used.
(§3) After PCR, products were digested with the Msp I restriction enzyme. […] Samples after digestion were subjected to gel electrophoresis, so that the ratio of the amount of the streptavidin aptamer to the amount of the control aptamer could be determined.

streptavidin [2] = biological target: T1, streptavidin; assay: footprint; stated non-binding control in S1 nuclease protection assay; conditions: tags: Roche (free); Dynabeads streptavidin (Invitrogen) for bead selections; chain copies: 4
Procedure: as §1, §2, §3

T1 sequence (P22629 25-183, one chain of several): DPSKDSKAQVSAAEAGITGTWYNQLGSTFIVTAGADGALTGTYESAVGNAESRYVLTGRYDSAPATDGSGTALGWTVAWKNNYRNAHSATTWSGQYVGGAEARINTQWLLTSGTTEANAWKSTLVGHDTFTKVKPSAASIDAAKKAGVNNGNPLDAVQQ

Binder | binding result (streptavidin [1]) | binding result (streptavidin [2])
B1 | binds | –
B2 | – | no binding
